{"source": "patent US20220088180A1", "binders": {"B1": {"name": "… (SEQ ID NO: 8) (peptide)", "peptide": "ELPDEFVVVTV", "modifications": "not checked"}, "B2": {"name": "… (SEQ ID NO: 37) (peptide)", "peptide": "NATNVVIKV", "modifications": "not checked"}, "B3": {"name": "… (SEQ ID NO: 38) (peptide)", "peptide": "QLTPTWRVY", "modifications": "not checked"}, "B4": {"name": "LEDKAFQL (SEQ ID NO: 10) (peptide)", "peptide": "LEDKAFQL", "modifications": "not checked"}, "B5": {"name": "… (SEQ ID NO: 28) (peptide)", "peptide": "FAVDAAKAY", "modifications": "not checked"}, "B6": {"name": "… (SEQ ID NO: 20) (peptide)", "peptide": "EEFEPSTQYEY", "modifications": "not checked"}, "B7": {"name": "… (SEQ ID NO: 39) (peptide)", "peptide": "VGYLQPRTF", "modifications": "not checked"}, "B8": {"name": "… (SEQ ID NO: 35) (peptide)", "peptide": "HADQLTPTW", "modifications": "not checked"}, "B9": {"name": "DEFVVVTV (SEQ ID NO: 11) (peptide)", "peptide": "DEFVVVTV", "modifications": "not checked"}, "B10": {"name": "… (SEQ ID NO: 19) (peptide)", "peptide": "STSAFVETV", "modifications": "not checked"}, "B11": {"name": "… (SEQ ID NO: 16) (peptide)", "peptide": "LATNNLVVM", "modifications": "not checked"}, "B12": {"name": "… (SEQ ID NO: 5) (peptide)", "peptide": "GLITLSYHL", "modifications": "not checked"}, "B13": {"name": "… (SEQ ID NO: 14) (peptide)", "peptide": "APHGHVMVEL", "modifications": "not checked"}}}
{"target": "HLA-B*44:02 (human)", "assay": "radioligand competition, purified MHC", "units": {"IC50": "µM"}}
{"binder": "B1", "IC50": "> 70"}
{"binder": "B2", "IC50": "> 70"}
{"binder": "B3", "IC50": "> 70"}
{"binder": "B4", "IC50": 35.4}
{"binder": "B5", "IC50": "> 70"}
{"binder": "B6", "IC50": 0.05}
{"binder": "B7", "IC50": "> 70"}
{"binder": "B8", "IC50": 5.26}
{"binder": "B9", "IC50": 2.79}
{"binder": "B10", "IC50": "> 70"}
{"binder": "B11", "IC50": 40.2}
{"binder": "B12", "IC50": 26}
{"binder": "B13", "IC50": "> 70"}
{"target": "HLA-B*51:01 (human)", "assay": "radioligand competition, purified MHC", "units": {"IC50": "µM"}}
{"binder": "B1", "IC50": "> 70"}
{"binder": "B2", "IC50": 0.536}
{"binder": "B3", "IC50": "> 70"}
{"binder": "B5", "IC50": "> 70"}
{"binder": "B6", "IC50": "> 70"}
{"binder": "B9", "IC50": 12.8}
{"binder": "B10", "IC50": "> 70"}
{"binder": "B11", "IC50": 32.7}
{"binder": "B13", "IC50": "> 70"}
{"target": "HLA-B*07:02 (human)", "assay": "radioligand competition, purified MHC", "units": {"IC50": "µM"}}
{"binder": "B1", "IC50": "> 70"}
{"binder": "B2", "IC50": "> 70"}
{"binder": "B3", "IC50": "> 70"}
{"binder": "B5", "IC50": "> 70"}
{"binder": "B6", "IC50": "> 70"}
{"binder": "B7", "IC50": "> 70"}
{"binder": "B9", "IC50": 52.8}
{"binder": "B10", "IC50": 8.86}
{"binder": "B11", "IC50": 0.055}
{"binder": "B12", "IC50": 14.3}
{"binder": "B13", "IC50": 0.0061}
{"target": "HLA-A*26:01 (human)", "assay": "radioligand competition, purified MHC", "units": {"IC50": "µM"}}
{"binder": "B1", "IC50": 0.072}
{"binder": "B2", "IC50": 43.4}
{"binder": "B3", "IC50": "> 70"}
{"binder": "B5", "IC50": 0.0067}
{"binder": "B6", "IC50": 18.8}
{"binder": "B7", "IC50": "> 70"}
{"binder": "B9", "IC50": 9.55}
{"binder": "B10", "IC50": 12.1}
{"binder": "B11", "IC50": "> 70"}
{"binder": "B12", "IC50": 40.3}
{"binder": "B13", "IC50": "> 70"}
{"target": "HLA-B*15:01 (human)", "assay": "radioligand competition, purified MHC", "units": {"IC50": "µM"}}
{"binder": "B1", "IC50": 35.1}
{"binder": "B2", "IC50": "> 70"}
{"binder": "B3", "IC50": 0.011}
{"binder": "B4", "IC50": 14.7}
{"binder": "B5", "IC50": 0.0027}
{"binder": "B6", "IC50": 0.078}
{"binder": "B7", "IC50": 0.777}
{"binder": "B8", "IC50": 13.4}
{"binder": "B9", "IC50": 2.05}
{"binder": "B10", "IC50": 10.4}
{"binder": "B11", "IC50": 0.315}
{"binder": "B12", "IC50": 1.5}
{"binder": "B13", "IC50": "> 70"}
{"target": "HLA-A*02:01 (human)", "assay": "radioligand competition, purified MHC", "units": {"IC50": "µM"}}
{"binder": "B1", "IC50": 0.0016}
{"binder": "B3", "IC50": "> 70"}
{"binder": "B4", "IC50": 3.89}
{"binder": "B5", "IC50": "> 70"}
{"binder": "B6", "IC50": "> 70"}
{"binder": "B7", "IC50": "> 70"}
{"binder": "B9", "IC50": 13}
{"binder": "B10", "IC50": 0.026}
{"binder": "B11", "IC50": "> 70"}
{"binder": "B12", "IC50": "< 0.0005"}
{"binder": "B13", "IC50": "> 70"}
{"target": "HLA-A*01:01 (human)", "assay": "radioligand competition, purified MHC", "units": {"IC50": "µM"}}
{"binder": "B1", "IC50": "> 70"}
{"binder": "B2", "IC50": "> 70"}
{"binder": "B3", "IC50": "> 70"}
{"binder": "B5", "IC50": "> 70"}
{"binder": "B6", "IC50": "> 70"}
{"binder": "B7", "IC50": "> 70"}
{"binder": "B9", "IC50": "> 70"}
{"binder": "B10", "IC50": 12.7}
{"binder": "B11", "IC50": "> 70"}
{"binder": "B13", "IC50": "> 70"}
{"target": "HLA-B*18:01 (human)", "assay": "radioligand competition, purified MHC", "units": {"IC50": "µM"}}
{"binder": "B1", "IC50": 1.13}
{"binder": "B2", "IC50": "> 70"}
{"binder": "B3", "IC50": "> 70"}
{"binder": "B4", "IC50": 0.035}
{"binder": "B5", "IC50": 35.9}
{"binder": "B6", "IC50": 0.0011}
{"binder": "B7", "IC50": 0.707}
{"binder": "B8", "IC50": 3.35}
{"binder": "B9", "IC50": "< 0.0005"}
{"binder": "B10", "IC50": "> 70"}
{"binder": "B11", "IC50": "> 70"}
{"binder": "B13", "IC50": "> 70"}
{"target": "HLA-B*44:03 (human)", "assay": "radioligand competition, purified MHC", "units": {"IC50": "µM"}}
{"binder": "B1", "IC50": "> 70"}
{"binder": "B2", "IC50": 8.11}
{"binder": "B3", "IC50": "> 70"}
{"binder": "B4", "IC50": 0.208}
{"binder": "B5", "IC50": "> 70"}
{"binder": "B6", "IC50": 0.00041}
{"binder": "B7", "IC50": "> 70"}
{"binder": "B8", "IC50": 1.8}
{"binder": "B9", "IC50": 1.28}
{"binder": "B10", "IC50": "> 70"}
{"binder": "B11", "IC50": 46.5}
{"binder": "B12", "IC50": 24.3}
{"binder": "B13", "IC50": "> 70"}
